# Tests used:
# [1] = target: T1, Porcine pancreatic elastase type III (Sus scrofa, UniProt P00772); assay: Association rate constant (kassoc) between enzyme and inhibitor; assay type: biochemical; settings: for t0.5 (half life of the enzyme-inhibitor association reaction) / kassoc, rate constant for the association between the enzyme and the inhibitor: equimolar enzyme and inhibitor, 3.37×10^-7, 37° C., pH 7.4; for kassoc, rate constant for the association between the enzyme and the inhibitor: calculated by equation (4); for Initial Reac. Rate: 37° C.
# T1 construct: purchased Sigma Chemicals Co. (St. Louis, MO)
# T1 sequence (P00772 27-266): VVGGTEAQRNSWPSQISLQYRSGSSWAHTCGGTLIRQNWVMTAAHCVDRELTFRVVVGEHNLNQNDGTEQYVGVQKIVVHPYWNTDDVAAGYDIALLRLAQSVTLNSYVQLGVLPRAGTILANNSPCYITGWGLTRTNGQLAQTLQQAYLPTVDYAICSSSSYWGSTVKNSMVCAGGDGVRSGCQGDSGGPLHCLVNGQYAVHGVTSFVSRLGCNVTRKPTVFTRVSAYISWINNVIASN
# Method: Association constants (kassoc) between the enzyme (E) and the inhibitor (I) were determined as follows: 25 μl each of equimolar amounts of the enzyme and the inhibitor were incubated at 37° C. with 1950 μl of buffer (0.05M TRIS, 0.15M NaCl, pH 7.4) (TRIS® is tris(hydroxymethyl)amino methane, supplied by Sigma, St. Louis, Mo.) to obtain a resultant concentration of 3.37×10^-7. At various times, a 200 μl aliquot of the enzyme-inhibitor solution was added to 780 μl buffer and 20 μl substrate (SA3 pNA) (60 mM) and the hydrolysis rate followed in the temperature controlled (37° C.) cuvette with a recorder (Model 6051, Gilford Instruments, Oberlin, Ohio) attachment. During hydrolysis no further enzyme-inhibitor association was assumed (5 fold dilution compared to preincubation) and the initial reaction rate (v) was indicative of the free enzyme (E) present at the end of the respective preincubation times. Enzyme inhibitor association is represented as: [formula] for kdissoc .perspectiveto.0 and equimolar concentrations of E and I we get
# With initial conditions t=0, E=Eo (all free enzyme) equation (2) integrates to
# By defining half life of the reaction t0.5 to be at E=0.5Eo we get
# The initial reaction rate (Δ absorbance/5 minutes) depicts the hydrolysis rate of the substrate by the free enzyme present following the respective preincubation time. Initial reaction rate, in the absence of the inhibitor, was determined and the time required for this rate to decrease to half of its original value (t0.5) was calculated. Equation (4) was subsequently used to calculate kassoc for each of the 3 cases.
# [2] = tested on: Antiserum (rabbit anti-human) to alpha-l-proteinase inhibitor; assay: Precipitin reaction with rabbit antiserum to the unmodified protein; assay type: binding; settings: for Precipitin Reaction: rabbit antiserum dil. 1:2; for Amount of protein needed to obtain a strong precipitin reaction: rabbit antiserum to the unmodified protein
# Method: Antiserum (rabbit anti-human) to alpha-l-proteinase inhibitor was obtained from Miles Laboratories (Elkhart, IN).
# For unmodified alpha-1-proteinase inhibitor, only 0.092 μg of protein was sufficient to obtain a strong precipitin reaction. For the 0.117 moles dextran/mole alpha-1-proteinase inhibitor conjugate, 14.5 μg of alpha-1-proteinase inhibitor was needed to elicit a similar response--a very significant increase of antigen concentration. For the 0.585 moles dextran/mole alpha-1-proteinase inhibitor conjugate increase of antigen concentration up to 29.0 μg was not sufficient to obtain a strong precipitin reaction with the antiserum.
# elastase [3] = target: T2, elastase (Sus scrofa, UniProt P00772); assay: pH stability (pH 3.0), recovery of EIC; assay type: physicochemical, porcine; settings: pH 3.0 for 24 hours at +5° C.; for Recovery of EIC as % of Control After Adjustment to pH 7.4, Incubation Time 24 hrs. (5° C.): back to pH 7.40, further 24 hrs. at 5° C.; for Recovery of EIC as % of Control After Adjustment to pH 7.4, Immediate: then back to pH 7.40, assayed immediately
# T2 construct: purchased Sigma Chemicals Co. (St. Louis, MO)
# T2 sequence (P00772 27-266): as above
# Method: In order to investigate the pH stability of these preparations, experimental samples were adjusted to pH 3.0 with controls at pH 7.40 and incubated for 24 hours at +5° C. Following this, pH was adjusted back up to 7.40 for the experimental samples and EIC assays carried out immediately. Samples were further incubated for 24 hours at +5° C. and reassayed.
# [4] = target: T1, Porcine pancreatic elastase type III; assay: Elastase inhibitory capacity (EIC) assay with chromogenic substrate SA3 pNA; assay type: biochemical; settings: for % EIC Recovered: recovery across covalent coupling
# From the text: Porcine pancreatic elastase type III and chromogenic substrate N-succinyl-L-anlanyl-L-alanyl-L-alanyl-p-nitroanilide (SA3 pNA) were obtained from Sigma Chemicals Co. (St. Louis, MO). Hydrolysis of the chromogenic substrate by the elastase liberates p-nitroaniline which gives a yellow color whose absorbance is measurable spectrophotometrically (Model 1084 UV Spectrophotometer, Gilford Instruments, Oberlin, OH) at 405 nm.
# Comparisons of the linear changes of absorbance with time both in the presence and in the absence of sample alpha-l-proteinase inhibitor and of sample alpha-l-proteinase inhibitor-dextran covalent complex were made. The amount of inhibitor was then calculated based on the known molecular weights of the elastase and alpha-l-proteinase inhibitor, on the known 1:1 stoichrometry, and on the known amount of elastase used. A pool of normal human plasma (>1000 donors) was used as the standard and assigned a value of 1 μ/ml of α1 PI.
# elastase [5] = target: T2, elastase; assay: Heat stability at 60° C., EIC readout; assay type: physicochemical, porcine; settings: within 60 minutes (FIG. 1)
# Method: Alpha-1-proteinase inhibitor and its dextran conjugates, with and without added beef liver catalase as antioxidant, were heated in closed tubes at 60±0.2° C. The tubes were preheated and due to large mass difference the samples reached the bath temperature in less than 60 seconds. At designated time intervals samples were withdrawn and instantaneously cooled down (by ice bath) to room temperature prior to assay.
# A significant difference here is observed between the native protein and its conjugates.
# elastase [6] = target: T2, elastase; assay: Oxidative inactivation by H2O2, recovery of EIC; assay type: physicochemical, porcine; settings: 0-28 mM H2O2, 37° C., 1 hour, pH 7.4 (FIG. 2)
# Method: Hydrogen peroxide (30% solution, Sigma Chemicals) was used as the oxidation agent to investigate the effect of 0-28 mM H2 O2 on the recovery of elastase inhibitory capacity (EIC) following incubation at 37° C. for 1 hour.
# FIG. 2 (oxidation at pH 7.4) depicts the effects of various concentrations of H2 O2 on the samples. […] It is to be understood that any antioxidant enzyme may be used, e.g. catalase or an equivalent enzyme such as superoxide dismutase.
# porcine elastase = settings: each at 1.4×10^-8 M; Beatty et al, J. Biol. Chem., 255, 3931 (1980); cited from earlier work
# [7] = bovine liver catalase modified with methoxypolyethylene glycol; Abuchowski et al; cited from earlier work
molecule,measurement,setting,value
"4: alpha-1-proteinase inhibitor-dextran complex, dextran mol. wt. 10,300, 100 mg inhibitor per gram of dextran, ratio 0.117 [Example 4]",t0.5 (half life of the enzyme-inhibitor association reaction),[1],21.49 s
same,"kassoc, rate constant for the association between the enzyme and the inhibitor",[1],141000 M⁻¹ s⁻¹
same,Initial Reac. Rate,[1]; preincubation time 20 secs.,0.450 Δ absorbance/5 minutes
same,Initial Reac. Rate,[1]; preincubation time 45 secs.,0.285 Δ absorbance/5 minutes
same,Initial Reac. Rate,[1]; preincubation time 75 secs.,0.195 Δ absorbance/5 minutes
same,Initial Reac. Rate,[1]; preincubation time 120 secs.,0.130 Δ absorbance/5 minutes
same,Precipitin Reaction,[2]; antigen conc. 14.5 μg,Strong
same,Amount of protein needed to obtain a strong precipitin reaction,[2],14.5 µg
same,"Recovery of EIC as % of Control After Adjustment to pH 7.4, Incubation Time 24 hrs. (5° C.)",elastase [3],81%
same,"Recovery of EIC as % of Control After Adjustment to pH 7.4, Immediate",elastase [3],68%
same,% EIC Recovered,[4],28.8%
"5: alpha-1-proteinase inhibitor-dextran complex, dextran mol. wt. 10,300, 20 mg inhibitor per gram of dextran, ratio 0.585 [Example 5]",t0.5 (half life of the enzyme-inhibitor association reaction),[1],34.67 s
same,"kassoc, rate constant for the association between the enzyme and the inhibitor",[1],85600 M⁻¹ s⁻¹
same,Initial Reac. Rate,[1]; preincubation time 25 secs.,0.495 Δ absorbance/5 minutes
same,Initial Reac. Rate,[1]; preincubation time 65 secs.,0.285 Δ absorbance/5 minutes
same,Initial Reac. Rate,[1]; preincubation time 100 secs.,0.205 Δ absorbance/5 minutes
same,Initial Reac. Rate,[1]; preincubation time 145 secs.,0.135 Δ absorbance/5 minutes
same,Precipitin Reaction,[2]; antigen conc. 1.95 μg,Weak
same,Precipitin Reaction,[2]; antigen conc. 29.0 μg,Weak
same,Amount of protein needed to obtain a strong precipitin reaction,[2],> 29.0 µg
same,"Recovery of EIC as % of Control After Adjustment to pH 7.4, Immediate",elastase [3],55%
same,% EIC Recovered,[4],18.4%
"Native α1 PI: human plasma glycoprotein alpha-1-proteinase inhibitor, molecular weight 53,000, purified from Cohn Fraction IV-1",Loss of initial activity (EIC) on heating,elastase [5],> 90%
same,Effect of H2O2 oxidation on EIC,elastase [6],significant progressive loss of EIC
same,"kassoc, rate constant for the association between the enzyme and the inhibitor",[1],185000 M⁻¹ s⁻¹
same,"kassoc, rate constant for the association between the enzyme and the inhibitor",[1]; listed as native protein,185000 M⁻¹ s⁻¹
same,Initial Reac. Rate,[1]; preincubation time 15 secs.,0.460 Δ absorbance/5 minutes
same,Initial Reac. Rate,[1]; preincubation time 30 secs.,0.310 Δ absorbance/5 minutes
same,Initial Reac. Rate,[1]; preincubation time 60 secs.,0.173 Δ absorbance/5 minutes
same,Initial Reac. Rate,[1]; preincubation time 65 secs.,0.170 Δ absorbance/5 minutes
same,Initial Reac. Rate,[1]; preincubation time 90 secs.,0.128 Δ absorbance/5 minutes
same,Precipitin Reaction,[2]; antigen conc. 0.092 μg,Strong
same,Amount of protein needed to obtain a strong precipitin reaction,[2],0.092 µg
same,"Recovery of EIC as % of Control After Adjustment to pH 7.4, Incubation Time 24 hrs. (5° C.)",elastase [3],66%
same,kassoc,porcine elastase,1×10^5 M^-1 sec.^-1
same,Elastase inhibitory capacity/mg total protein,[4]; purified from Cohn Fraction IV-1,1.5
"PEG-1900-catalase: bovine liver catalase covalently modified with methoxypolyethylene glycol of 1900 daltons using cyanuric chloride (Abuchowski et al) (conjugate, UniProt P00432 2-527, looked up, mPEG 1900) Catalase: ADNRDPASDQMKHWKEQRAAQKPDVLTTGGGNPVGDKLNSLTVGPRGPLLVQDVVFTDEMAHFDRERIPERVVHAKGAGAFGYFEVTHDITRYSKAKVFEHIGKRTPIAVRFSTVAGESGSADTVRDPRGFAVKFYTEDGNWDLVGNNTPIFFIRDALLFPSFIHSQKRNPQTHLKDPDMVWDFWSLRPESLHQVSFLFSDRGIPDGHRHMNGYGSHTFKLVNANGEAVYCKFHYKTDQGIKNLSVEDAARLAHEDPDYGLRDLFNAIATGNYPSWTLYIQVMTFSEAEIFPFNPFDLTKVWPHGDYPLIPVGKLVLNRNPVNYFAEVEQLAFDPSNMPPGIEPSPDKMLQGRLFAYPDTHRHRLGPNYLQIPVNCPYRARVANYQRDGPMCMMDNQGGAPNYYPNSFSAPEHQPSALEHRTHFSGDVQRFNSANDDNVTQVRTFYLKVLNEEQRKRLCENIAGHLKDAQLFIQKKAVKNFSDVHPEYGSRIQALLDKYNEEKPKNAVHTYVQHGSHLSAREKANL",Retained enzymatic activity,[7],93%
"PEG-5000-catalase: bovine liver catalase covalently modified with methoxypolyethylene glycol PEG-5000 using cyanuric chloride (Abuchowski et al) (conjugate, UniProt P00432 2-527, looked up, mPEG 5000) Catalase: ADNRDPASDQMKHWKEQRAAQKPDVLTTGGGNPVGDKLNSLTVGPRGPLLVQDVVFTDEMAHFDRERIPERVVHAKGAGAFGYFEVTHDITRYSKAKVFEHIGKRTPIAVRFSTVAGESGSADTVRDPRGFAVKFYTEDGNWDLVGNNTPIFFIRDALLFPSFIHSQKRNPQTHLKDPDMVWDFWSLRPESLHQVSFLFSDRGIPDGHRHMNGYGSHTFKLVNANGEAVYCKFHYKTDQGIKNLSVEDAARLAHEDPDYGLRDLFNAIATGNYPSWTLYIQVMTFSEAEIFPFNPFDLTKVWPHGDYPLIPVGKLVLNRNPVNYFAEVEQLAFDPSNMPPGIEPSPDKMLQGRLFAYPDTHRHRLGPNYLQIPVNCPYRARVANYQRDGPMCMMDNQGGAPNYYPNSFSAPEHQPSALEHRTHFSGDVQRFNSANDDNVTQVRTFYLKVLNEEQRKRLCENIAGHLKDAQLFIQKKAVKNFSDVHPEYGSRIQALLDKYNEEKPKNAVHTYVQHGSHLSAREKANL",Retained enzymatic activity,[7],95%

# From patent US4496689A, “Covalently attached complex of alpha-1-proteinase inhibitor with a water soluble polymer” (Miles Laboratories, Inc., priority 1983, dated 1985)
